Results: patent publication US20230416394A1

How the values were obtained:
[1] = target: human CD39 protein (Octet assays) (human); assay: Octet, antibody on sensor, CD39 gradient
[2] = target: 6×His tagged human CD39 (human); assay: Biacore, antibody captured, 6×His human CD39 as analyte, 1:1 model
Sequence of 6×His tagged human CD39 (human) (P49961 38-478): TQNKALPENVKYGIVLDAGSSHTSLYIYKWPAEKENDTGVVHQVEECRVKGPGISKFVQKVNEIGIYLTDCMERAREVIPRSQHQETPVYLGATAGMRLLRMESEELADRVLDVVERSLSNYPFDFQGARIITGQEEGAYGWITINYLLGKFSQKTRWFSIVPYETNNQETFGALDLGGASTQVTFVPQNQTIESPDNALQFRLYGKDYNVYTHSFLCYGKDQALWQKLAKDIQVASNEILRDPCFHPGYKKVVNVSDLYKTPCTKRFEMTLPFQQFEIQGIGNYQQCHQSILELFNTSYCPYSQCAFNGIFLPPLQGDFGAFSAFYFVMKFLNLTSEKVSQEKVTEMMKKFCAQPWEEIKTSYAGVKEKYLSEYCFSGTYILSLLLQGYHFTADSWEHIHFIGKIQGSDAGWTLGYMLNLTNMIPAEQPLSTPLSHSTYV

Sequence of human CD39 protein (Octet assays) (human) (P49961 38-478): as above

- Kd [1]: 0.687 nM
- koff [1]: 9.36e-05 s⁻¹
- kon [1]: 136000 M⁻¹ s⁻¹
- Kd [2]: 19.5 nM
- koff [2]: 0.0016 s⁻¹
- kon [2]: 82200 M⁻¹ s⁻¹
B1: hu23.H5L5 (antibody, from a related filing, V domains shown)
VH: QVQLVQSGAEVKKPGASVKVSCKASGYNLKDTFLHWVRQAPGQGLEWMGRIDPANGNIKYDPKFQGRVTITADTSANTAYMELISLRSEDTAVYYCANSPYYYGSGYRIFDVWGQGTTVTVSS
VL: QIVLTQSPATLSLSPGERATLSCSAFSSVNYMHWYQQKPGQAPRLLIYTTSNLASGIPTRFSGSGSGTSYTLTISSLEPEDFAVYYCQQRSTYPFTFGQGTKLEIK
